Patent publication US20240010735A1 (EISAI R AND D MANAGEMENT, published 2024)

Legend:
Experiment in all cases: ELISA: Fc-His proteins (1 nM) captured on anti-6-His antibody, antibody B 10 µg/mL with human IgG 100 µg/mL, HRP anti-human kappa light chain antibody, OD450 as % of mouse EphA4-Fc-His
[1] = target: T1, mouse EphA1 extracellular region-Fc-His protein (mouse; human, UniProt Q60750 27-548)
T1 construct: extracellular domain; not shown: Fc region of human IgG1; histidine tag
T1 sequence (looked up): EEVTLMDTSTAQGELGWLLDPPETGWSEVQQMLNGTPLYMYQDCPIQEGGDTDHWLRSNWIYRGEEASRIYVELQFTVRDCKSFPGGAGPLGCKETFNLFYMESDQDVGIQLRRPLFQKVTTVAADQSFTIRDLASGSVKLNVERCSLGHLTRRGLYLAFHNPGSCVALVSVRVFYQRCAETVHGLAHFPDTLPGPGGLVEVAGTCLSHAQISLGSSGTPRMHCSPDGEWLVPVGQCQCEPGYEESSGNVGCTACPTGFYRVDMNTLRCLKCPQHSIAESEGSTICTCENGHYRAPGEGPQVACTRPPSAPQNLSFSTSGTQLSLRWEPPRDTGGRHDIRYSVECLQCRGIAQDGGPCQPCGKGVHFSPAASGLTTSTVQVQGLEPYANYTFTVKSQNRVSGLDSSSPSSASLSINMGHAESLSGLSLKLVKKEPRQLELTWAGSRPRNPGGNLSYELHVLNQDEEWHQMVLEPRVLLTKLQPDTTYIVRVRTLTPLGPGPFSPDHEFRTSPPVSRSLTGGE
Procedure: (§1) Rabbit anti-6-His antibodies (Bethyl Laboratories) were coated onto the wells of a 96-well plate (Nunc). After incubating at 4° C. overnight, the wells were blocked at room temperature for 1 hour by 1% Block Ace (DS Pharma Biomedical). After washing 3 times with 0.05% Tween 20/PBS (Thermo […]), each Eph receptor of mouse extracellular region-Fc-His protein (final concentration 1 nM) was seeded into each well, and incubated at room temperature for 1 hour. After washing 3 times, human IgG solution (100 μg/mL, Sigma) and antibody B (10 μg/mL) were supplemented to the wells, and incubated at room temperature for 1 hour. Horseradish peroxidase-labeled goat anti-human Kappa Light Chain antibody (IBL) was added, and incubated at room temperature for 1 hour. After washing 3 times, TMBZ (3,3′,5,5′-tetramethylbenzidine, Sigma) solution was added to the wells, and upon confirmation of modest coloring, an equal amount of quenching solution (1 N H₂SO₄, Wako Pure Chemicals) was added to the wells, and absorbance at 450 nm was read by a microplate reader (PerkinElmer).

[2] = target: T2, mouse EphA2 extracellular region-Fc-His protein (mouse, UniProt Q03145 26-538)
T2 construct: extracellular domain; Cloned into a pcDNA 3.1 vector separately from the other mouse Eph receptors; not shown: Fc; histidine tag
T2 sequence (Q03145 26-538): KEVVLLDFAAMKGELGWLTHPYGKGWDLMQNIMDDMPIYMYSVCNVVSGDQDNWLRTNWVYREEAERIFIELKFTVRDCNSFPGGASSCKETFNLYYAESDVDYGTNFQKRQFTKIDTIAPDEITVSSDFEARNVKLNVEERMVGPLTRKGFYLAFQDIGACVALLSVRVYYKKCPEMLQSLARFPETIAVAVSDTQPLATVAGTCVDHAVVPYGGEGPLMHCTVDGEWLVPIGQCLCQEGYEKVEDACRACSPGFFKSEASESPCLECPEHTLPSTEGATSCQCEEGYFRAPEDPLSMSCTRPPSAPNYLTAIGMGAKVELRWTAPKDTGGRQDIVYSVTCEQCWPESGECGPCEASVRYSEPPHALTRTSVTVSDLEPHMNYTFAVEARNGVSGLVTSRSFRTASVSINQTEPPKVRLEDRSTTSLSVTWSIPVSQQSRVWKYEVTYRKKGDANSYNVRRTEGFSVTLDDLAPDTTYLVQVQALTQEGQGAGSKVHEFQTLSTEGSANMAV
Procedure: as §1

[3] = target: T3, mouse EphA8 extracellular region-Fc-His protein (mouse; human, UniProt O09127 27-541)
T3 construct: extracellular domain; not shown: Fc region of human IgG1; histidine tag
T3 sequence (looked up): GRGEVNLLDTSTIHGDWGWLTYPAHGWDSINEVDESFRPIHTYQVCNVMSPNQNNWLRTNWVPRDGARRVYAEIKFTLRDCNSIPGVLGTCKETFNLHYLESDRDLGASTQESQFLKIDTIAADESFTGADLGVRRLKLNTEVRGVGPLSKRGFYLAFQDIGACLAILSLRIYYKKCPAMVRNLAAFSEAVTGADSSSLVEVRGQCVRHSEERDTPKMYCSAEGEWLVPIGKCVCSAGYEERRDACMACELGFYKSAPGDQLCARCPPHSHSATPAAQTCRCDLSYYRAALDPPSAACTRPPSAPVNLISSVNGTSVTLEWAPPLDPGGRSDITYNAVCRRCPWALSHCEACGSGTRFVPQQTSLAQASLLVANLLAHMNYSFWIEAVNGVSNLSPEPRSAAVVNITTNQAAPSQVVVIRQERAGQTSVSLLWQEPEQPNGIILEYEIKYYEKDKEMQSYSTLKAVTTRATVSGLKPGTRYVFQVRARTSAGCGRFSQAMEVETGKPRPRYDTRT
Procedure: as §1

[4] = target: T4, mouse EphB3 extracellular region-Fc-His protein (mouse; human, UniProt P54754 30-554)
T4 construct: extracellular domain; not shown: Fc region of human IgG1; histidine tag
T4 sequence (looked up): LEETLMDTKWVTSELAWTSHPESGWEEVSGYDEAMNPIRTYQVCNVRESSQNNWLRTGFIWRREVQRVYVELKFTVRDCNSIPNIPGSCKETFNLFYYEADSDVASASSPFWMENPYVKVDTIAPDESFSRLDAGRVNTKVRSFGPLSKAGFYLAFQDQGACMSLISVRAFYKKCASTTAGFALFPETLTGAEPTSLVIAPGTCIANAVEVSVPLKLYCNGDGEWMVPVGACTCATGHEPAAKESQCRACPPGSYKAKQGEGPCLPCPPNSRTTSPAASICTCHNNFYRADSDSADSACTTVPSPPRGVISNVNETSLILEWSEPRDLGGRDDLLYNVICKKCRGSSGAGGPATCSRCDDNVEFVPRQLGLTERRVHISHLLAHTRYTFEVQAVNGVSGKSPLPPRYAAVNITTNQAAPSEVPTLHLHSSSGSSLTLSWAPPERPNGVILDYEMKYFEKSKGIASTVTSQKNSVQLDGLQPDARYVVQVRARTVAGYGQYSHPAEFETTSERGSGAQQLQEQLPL
Procedure: as §1

Measured: binding result

B1: humanized anti-EphA4 monoclonal antibody (antibody B) (antibody, human IgG2, V domains shown)
VH: QVQLVESGGGVVQPGRSLRLSCAVSGFSLTRFGVHWVRQAPGKGLEWVAVIWRGGSTDYNAAFMSRLTISKDNSKNTVYLQMNSLRAEDTAVYYCAKESLFGVYYDYGYYSMDYWGQGTTVTVSS
VL: DIQMTQSPSSLSASVGDRVTITCRASQEISGYLSWLQQKPGKAPKRLIYAASTLDSGVPSRFSGSRSGTEYTLTISSLQPEDFATYYCLQYASYPLTFGGGTKVEIKR
notes: expressed in Expi293F cells; also called humanized antibody of antibody A; HK2-42 / L1-8
no binding (tested: 10 µg/mL): [1] | [2] | [3] | [4]
